T1: CD19 Fc recombinant protein (UniProt P15391 20-291)
T1 construct: Bought staining reagent (R&D System), detected with anti-Fc-AF647; also called CD19-Fc peptide; not shown: Fc part of the bought reagent
T1 sequence (looked up): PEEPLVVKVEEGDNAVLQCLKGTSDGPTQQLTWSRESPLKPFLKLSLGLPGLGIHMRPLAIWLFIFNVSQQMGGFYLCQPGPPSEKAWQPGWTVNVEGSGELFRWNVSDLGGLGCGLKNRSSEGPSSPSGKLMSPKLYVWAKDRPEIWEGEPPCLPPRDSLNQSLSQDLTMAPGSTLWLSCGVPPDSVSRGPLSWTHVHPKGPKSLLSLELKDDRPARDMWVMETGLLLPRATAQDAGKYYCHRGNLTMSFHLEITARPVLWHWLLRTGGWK

B1: CAR D0255 (CD20_CD19 CD28 CD28 BBz) (other)
chain: EIVLTQSPATLSLSPGERATLSCRASQSVSSYLAWYQQKPGQAPRLLIYDASNRATGIPARFSGSGSGTDFTLTISSLEPEDFAVYYCQQRSNWPITFGQGTRLEIKGGGGSGGGGSGGGGSEVQLVESGGGLVQPGRSLRLSCAASGFTFNDYAMHWVRQAPGKGLEWVSTISWNSGSIGYADSVKGRFTISRDNAKKSLYLQMNSLRAEDTALYYCAKDIQYGNYYYGMDVWGQGTTVTVSSGGGGSGGGGSGGGGSGGGGSGGGGSEVQLVQSGAEVKKPGASVKVSCKASGYTFTSYYMHWVRQAPGQGLEWMGLINPSGGSTSYAQKFQGRVTMTRDTSTSTVYMELSSLRSEDTAVYYCARSDRGITATDAFDIWGQGTMVTVSSGGGGSGGGGSGGGGSQSVLTQPPSVSVAPGRMAKITCGGSDIGNKNVHWYQQKPGQAPVLVVYDDYDRPSGIPERFSGSNSGDAATLTISTVEVGDEADYFCQVWDGSGDPYWMFGGGTQLTVLGAAAIEVMYPPPYLDNEKSNGTIIHVKGKHLCPSPLFPGPSKPFWVLVVVGGVLACYSLLVTVAFIIFWVRSKRSRLLHSDYMNMTPRRPGPTRKHYQPYAPPRDFAAYRSKRGRKKLLYIFKQPFMRPVQTTQEEDGCSCRFPEEEEGGCELRVKFSRSADAPAYQQGQNQLYNELNLGRREEYDVLDKRRGRDPEMGGKPRRKNPQEGLYNELQKDKMAEAYSEIGMKGERRRGKGHDGLYQGLSTATKDTYDALHMQALPPR
notes: Tandem CAR on transduced human primary T cells: CD20 scFv, G4S linker, CD19 scFv, CD28 hinge/TM, CD28_4-1BB, CD3zeta; no residue limits are stated; also called CAR DO255
B2: CAR D0256 (CD20_CD19 CD8 CD28 BBz) (other)
chain: EIVLTQSPATLSLSPGERATLSCRASQSVSSYLAWYQQKPGQAPRLLIYDASNRATGIPARFSGSGSGTDFTLTISSLEPEDFAVYYCQQRSNWPITFGQGTRLEIKGGGGSGGGGSGGGGSEVQLVESGGGLVQPGRSLRLSCAASGFTFNDYAMHWVRQAPGKGLEWVSTISWNSGSIGYADSVKGRFTISRDNAKKSLYLQMNSLRAEDTALYYCAKDIQYGNYYYGMDVWGQGTTVTVSSGGGGSGGGGSGGGGSGGGGSGGGGSEVQLVQSGAEVKKPGASVKVSCKASGYTFTSYYMHWVRQAPGQGLEWMGLINPSGGSTSYAQKFQGRVTMTRDTSTSTVYMELSSLRSEDTAVYYCARSDRGITATDAFDIWGQGTMVTVSSGGGGSGGGGSGGGGSQSVLTQPPSVSVAPGRMAKITCGGSDIGNKNVHWYQQKPGQAPVLVVYDDYDRPSGIPERFSGSNSGDAATLTISTVEVGDEADYFCQVWDGSGDPYWMFGGGTQLTVLGAAATTTPAPRPPTPAPTIASQPLSLRPEACRPAAGGAVHTRGLDFACDIYIWAPLAGTCGVLLLSLVITLYCRSKRSRLLHSDYMNMTPRRPGPTRKHYQPYAPPRDFAAYRSKRGRKKLLYIFKQPFMRPVQTTQEEDGCSCRFPEEEEGGCELRVKFSRSADAPAYQQGQNQLYNELNLGRREEYDVLDKRRGRDPEMGGKPRRKNPQEGLYNELQKDKMAEAYSEIGMKGERRRGKGHDGLYQGLSTATKDTYDALHMQALPPR
notes: Tandem CAR on transduced human primary T cells: CD20 scFv, G4S linker, CD19 scFv, CD8 hinge/TM, CD28_4-1BB, CD3zeta; no residue limits are stated

Molecular target: T1, CD19 Fc recombinant protein
Experiment: flow cytometry of CAR-transduced primary T cells stained with CD19 Fc, then anti-Fc AF647
Procedure: The surface expression of anti-CD20/CD19 CARs incorporating single chain fragment variable (ScFv) sequences reactive with fully human CD20 and CD19 antigens, is shown in Example 1 infra, FIG. 1B. The expression level for each ScFv-containing CAR was determined by flow cytometric analysis of LV-transduced T cells from healthy donors using CD19 Fc recombinant protein, followed by anti Fc AF647 (APC).
Half million CAR T cells were washed in cold AutoMACS buffer supplemented with 0.5% bovine serum albumin (Miltenyi Biotec, Bergisch Gladbach, Germany) and stained with CD19-Fc peptide (R&D System, Minneapolis, MN), followed by anti Fc-AF647 conjugate (Jackson ImmunoResearch, West Grove, PA). The 7-Aminoactinomycin D staining (7-AAD, BD Biosciences, San Jose, CA) was added to exclude dead cells. CD4 antibody labeled with Vioblue fluorochrome was used to separate CD4 and CD8 population. Non-transduced cells (UTD) were used as a negative control. Cells were washed twice, resuspended in 200 μl running buffer, and acquired by flow cytometry. Flow cytometric analysis was performed on a MACSQuant® 10 Analyzer (Miltenyi Biotec), and data plots were generated using FlowJo software (Ashland, OR).

Row | Binder | binding result
1 | B1 | binds
2 | B2 | binds
